Laboratory results as given in paper PMC12062136.

Target: mCherry^N-gp418^N chimeric protein

For gp418^C-mCherry^C chimeric protein, the concurrent in situ splicing in a four-strain E. coli co-culture: mCherry fluorescence (580 nm excitation-610 nm emission) of the purified protein mixture was 35000 a.u.
